Reference: the supplement of paper PMC10567573

B1: PTPRD (parent)
chain: FICQATGDPRPKIVWNKKGKKVSN
B2: PWWP2B (parent)
chain: TIRLRPRQVLCEKCKSTLSPPEAS

Variants of: B1
Test: protein stability index of a GFP-peptide fusion (GPS, HEK-293T) (PSI 1-6); higher = more stable
Details: c terminus: a fixed tail appended
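Further: lentivirally expressed fusions sorted by FACS into six bins by GFP to DsRed ratio, PSI derived from sequencing read proportions per bin multiplied by bin number.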

Protein stability index of substitutions, site by site:
C3: F 1.92; T 1.98; S 1.92; V 2.31; E 3.04; A 2.55; L 1.86; P 3.54; G 2.2
N16: C 1.73; W 1.48; G 1.05; K 2.25; M 1.74; R 1.96
R10: I 2.08; N 1.83; C 1.84; T 2; L 1.83
W15: S 2.7; R 2.6; Y 2.25; C 2.57; V 2.76; Q 2.73; E 2.67; D 2.73
K20: M 1.8; Y 1.48; D 1.64; S 1.94; Q 2.56; G 1.79
P9: E 1.99; Q 1.83; F 1.99; I 2.21; V 2.27
G19: A 2.23; I 1.53; C 1.26; M 2.22; R 2.05; E 1.8
Q4: E 2.18; R 1.56; P 2.14; L 2.17; F 2.25; H 2.33
G7: C 1.87; Q 2.22; H 2.16; F 2.69; Y 1.7; W 3.96; P 2.32
K12: V 1.61; M 1.58; A 1.87; T 2.26; Q 1.94; W 1.6; N 1.95; L 3.35
K21: Q 1.77; N 2.17; I 2.2; H 1.95; A 2.52; S 2.28; P 2.18; M 2.03; F 1.61; D 1.99; V 1.9
S23: A 2.49; C 2.69; H 2.37; V 2.4; R 2.08; Y 2; F 2.31
V22: Y 2.47; C 2.13; H 2.46; A 2; N 2.16; P 2.62
A5: I 1.77; P 2.04; D 2.39; F 2.19; M 2.02
D8: L 1.5; M 1.8; G 1.98; H 1.6; K 2.5; R 2.24
P11: V 1.18; R 2.5; C 1.32; Y 2.31; M 1.03; Q 2.19
K18: W 2.01; D 1.95; P 1.97; L 1.67; S 1.61; E 2.41; G 2.04; H 2.35
N24: D 2.05; P 2.31; F 1.89; I 2.73
I13: A 1.83; Q 2.02; H 1.74; W 1.87; R 2.46
T6: R 2; Q 2.17; H 1.68; L 1.47; N 1.78; G 2.18; P 1.96; K 2.02; S 2.94
K17: S 1.79; Q 1.84; W 2.78; M 1.78
V14: E 2.7; T 2.5; K 2.4
F1: T 3.08; A 3.28; C 3.2; Q 3.42; I 2.35; R 3.66; S 3.3
I2: V 2.34; T 3.58; P 3.89; F 3.85; L 2.59; Y 3.01; S 3.75; G 4.1; H 1.55

Variants of: B2
Test: as above
Details: c terminus: a fixed tail appended

Protein stability index of substitutions, site by site:
L10: H 3.3; F 1.94; D 3.9; A 3.44; E 3.35; G 3.17; C 3.21
T1: C 2.91; F 1.72; L 2.28; I 2.44; P 3.43; Y 1.76; N 3.63; R 2.65; E 3.55; Q 3.11; H 2.8; D 3.76; W 2.12; A 2.59; M 2.23; G 3.09; V 2.78; S 2.98; K 2.98
P6: Q 3.02; D 3.61; S 3.1; A 2.76; I 1.62; E 3.8; K 2.82; Y 2.04; G 3.25; H 2.77; C 2.46; L 2.04; R 2.52; V 2.19; F 2.05; T 3.09; M 2.37; N 2.53; W 2.05
R7: T 3.31; M 2.92; F 2.94; G 3.12; Y 2.69; Q 3.38; V 2.96; C 3.2; E 3.9; D 3.85; I 2.9; H 3.1; N 2.87; S 3.01; A 3.48; W 2.16; L 2.62; K 2.99; P 3.33
I2: H 3.54; E 3.67; G 3.27; R 3.11; V 3.24; S 3.64; P 4.11; C 3.7; M 2.76; L 3.35; F 3.54; Q 3.63; A 3.61; W 3; T 3.85; D 3.68; Y 3.04; K 2.98; N 4.05
Q8: M 2.92; H 2.77; A 2.85; S 3.05; W 2.19; V 2.35; P 3.06; E 3.33; T 2.76; N 2.97; K 2.99; Y 2.74; D 3.49; R 2.95; L 2.58; F 2.24; I 2.64; C 2.09; G 2.96
L4: K 3.58; Y 2.87; R 3.03; F 2.77; H 3.23; C 3.45; A 2.99; G 3.63; P 3.45; D 4.18; N 3.58; T 3.85; V 3.22; S 3.6; I 2.79; W 2.31; M 3.32; Q 3.04; E 3.79
V9: C 3.42; N 3.58; D 3.19; P 3.13; G 2.64; S 3.16; H 2.97; M 2.73; E 3.35; R 2.94; K 2.85; Q 3.31; T 3.33; A 3.61; W 2.24; F 2.72; Y 2.54; L 2.37; I 3
R5: Q 3; E 4.03; W 2.9; H 3.16; N 2.78; D 3.73; T 3.1; M 3.22; F 3.19; K 2.96; V 3.52; A 3.34; P 3.54; I 2.93; C 2.77; Y 2.73; L 2.91; G 3.37; S 3.43
R3: E 4.37; G 3.09; M 3.14; C 2.61; N 3.8; T 3.27; Q 3.61; L 2.71; S 3.37; W 2.98; Y 2.82; A 3.69; P 3.81; H 3.09; V 2.7; F 2.02; D 3.82; I 3.04; K 3.99
